Laboratory results reported in patent US20250333497A1, “ACTIVATING ANTIBODIES OF RECEPTOR PROTEINS PLXDC1 AND PLXDC2” (THE REGENTS OF THE UNIVERSITY OF CALIFORNIA, priority 2022, published 2025).
Where a chain is given by its changes, count along the chain named.

T1: full length PLXDC1 (PLXDC1-Full) (Homo sapiens, UniProt Q8IUK5)
T1 construct: expressed in transfected cells
T1 sequence (Q8IUK5 19-500): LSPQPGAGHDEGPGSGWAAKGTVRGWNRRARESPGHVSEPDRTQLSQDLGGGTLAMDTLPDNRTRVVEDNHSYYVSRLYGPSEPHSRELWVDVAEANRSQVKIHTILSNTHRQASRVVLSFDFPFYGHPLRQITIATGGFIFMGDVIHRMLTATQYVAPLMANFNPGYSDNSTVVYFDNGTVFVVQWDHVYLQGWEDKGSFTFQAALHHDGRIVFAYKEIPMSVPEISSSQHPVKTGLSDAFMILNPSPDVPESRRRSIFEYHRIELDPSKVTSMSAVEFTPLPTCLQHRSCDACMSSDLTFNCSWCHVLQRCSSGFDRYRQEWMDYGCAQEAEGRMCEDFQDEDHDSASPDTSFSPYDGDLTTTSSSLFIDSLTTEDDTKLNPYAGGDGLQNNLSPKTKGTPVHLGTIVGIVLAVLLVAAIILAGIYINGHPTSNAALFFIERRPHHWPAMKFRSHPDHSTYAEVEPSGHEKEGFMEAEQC

B1: A010: VH SEQ ID NO:176, VL SEQ ID NO:177; Domain A-binding PLXDC1-activating antibody (antibody, V domains shown)
VH: QVQLVQSGAEVKKPGSSVKVSCKASGGTFSDEAIHWVRQAPGQGLEWMGRIIPVLGIASYAQKFQGRVTITADESTSTAYMELSSLRSEDTAVYYCARGLSRRAFYFDYWGQGTLVTVSS
VL: DIQMTQSPSSLSASVGDRVTITCRASQTIGNYLNWYQQKPGKAPKLLIYVASSLQSGVPSRFSGSGSGTDFTLTISSLQPEDFATYYCQQSYRYPYTFGQGTKVEIK
B2: A004: VH SEQ ID NO:20, VL SEQ ID NO:21; Domain A-binding PLXDC1-activating antibody (antibody, V domains shown)
VH: QVQLVESGGGVVQPGRSLRLSCAASGFTFSDYGMHWVRQAPGKGLEWVAVISYEGSNEYYADSVKGRFTISRDNSKNTLYLQMNSLRAEDTAVYYCARGSEGSGFDVWGQGTLVTVSS
VL: B1 VL with T28R, G30S, V50A, R93S, Y94P
B3: A001: VH SEQ ID NO:38, VL SEQ ID NO:39; Domain A-binding PLXDC1-activating antibody (antibody, V domains shown)
VH: EVQLLESGGGLVQPGGSLRLSCAASGFTFSSYAMSWVRQAPGKGLEWVSTIYASGATTYYADSVKGRFTISRDNSKNTLYLQMNSLRAEDTAVYYCARLKLYHAAFDIWGQGTLVTVSS
VL: B1 VL with T28D, G30S, N31S, V50T, R93S, Y96L
B4: A005: VH SEQ ID NO:70, VL SEQ ID NO:71; Domain A-binding PLXDC1-activating antibody (antibody, V domains shown)
VH: B2 VH with E54D, N57R, E58K, D62N, E101Y, G102S, S103D
VL: B1 VL with T28S, G30S, N31R, P40T, V50G, R93S, Y94T
B5: A002: VH SEQ ID NO:82, VL SEQ ID NO:83; Domain A-binding PLXDC1-activating antibody (antibody, V domains shown)
VH: EVQLLESGGGLVQPGGSLRLSCAASGFTFKNYAMSWVRQAPGKGLEWVSAISASGGYTYYADSVKGRFTISRDNSKNTLYLQMNSLRAEDTAVYYCARGRWGAFDYWGQGTLVTVSS
VL: QSVLTQPPSVSGAPGQRVTISCTGSSSNIGSGYDVHWYQQLPGTAPKLLIYGNRNRPSGVPDRFSGSKSGTSASLAITGLQAEDEADYYCQSYDSSLKTWVFGGGTKLTVL

target: T2, Domain A-deleted PLXDC1 (PLXDC1-dA) (Homo sapiens, UniProt Q8IUK5); assay: Domain A binding specificity: binding to Domain A-deleted PLXDC1 expressed in transfected cells; settings: antibodies of Table 3 tested for ability to bind Domain A
T2 construct: expressed in transfected cells
Text: (§1) The specific binding to Domain A of a PLXDC protein can be tested with a method described herein. In some embodiments, the method employs a PLXDC with the Domain A deleted. […] An example is Compound 369 as described above.
(§2) The Domain A-binding antibodies are 3-C11, 4-A8, 5-E2, 2-H2, 3-G6, 3-G7, 8-A7, 8-A9, 8-C9 and 8-D9.
(§3) Both full length PLXDC1 and Domain A deleted PLXDC1 (PLXDC1-dA) have an epitope tag on the N-terminus.

Question: For B1, which “binding to PLXDC1 mutant with Domain A deleted” value (“binding to PLXDC1 mutant” below) is on record?
Answer: not the mutant with Domain A deleted

Question: B2 was tested. Which “binding to PLXDC1 mutant” value did it give?
Answer: not the mutant with Domain A deleted

Question: For B3, which “binding to PLXDC1 mutant” value is on record?
Answer: not the mutant with Domain A deleted

Question: With B4 as the molecule, how does the “binding to PLXDC1 mutant” value read?
Answer: not the mutant with Domain A deleted

Question: For B5, which “binding to PLXDC1 mutant” value is on record?
Answer: not the mutant with Domain A deleted

same assay, conditions: transfected into a cell line that does not express PLXDC1; FIG. 3-4

Question: For B2, which “binding to Domain A-deleted PLXDC1 (PLXDC1-dA)” value (from here on “binding … (PLXDC1-dA)”) is on record?
Answer: did not bind to Domain A-deleted PLXDC1

Question: B3 was tested. Which “binding … (PLXDC1-dA)” value did it give?
Answer: did not bind to Domain A-deleted PLXDC1

Question: For B4, which “binding … (PLXDC1-dA)” value is on record?
Answer: did not bind to Domain A-deleted PLXDC1

Question: Which “binding … (PLXDC1-dA)” value does the source give for B5 here?
Answer: did not bind to Domain A-deleted PLXDC1

target: T1, full length PLXDC1 (PLXDC1-Full); assay: Domain A binding specificity: binding to full length PLXDC1 expressed in transfected cells; settings: antibodies of Table 3 tested for ability to bind Domain A
Text: as §1, §2, §3

Question: With B1 as the molecule, how does the “binding to PLXDC1” value read?
Answer: able to bind PLXDC1

Question: With B2 as the molecule, how does the “binding to PLXDC1” value read?
Answer: able to bind PLXDC1

Question: How did the “binding to PLXDC1” value turn out when B3 was run?
Answer: able to bind PLXDC1

Question: With B4 as the molecule, how does the “binding to PLXDC1” value read?
Answer: able to bind PLXDC1

Question: B5 was tested. Which “binding to PLXDC1” value did it give?
Answer: able to bind PLXDC1

same assay, conditions: transfected into a cell line that does not express PLXDC1; FIG. 3-4

Question: B2 was tested. Which “binding to full length PLXDC1 (PLXDC1-Full)” value (from here on “binding to full length PLXDC1”) did it give?
Answer: only bound to full length PLXDC1

Question: With B3 as the molecule, how does the “binding to full length PLXDC1” value read?
Answer: only bound to full length PLXDC1

Question: B4 was tested. Which “binding to full length PLXDC1” value did it give?
Answer: only bound to full length PLXDC1

Question: With B5 as the molecule, how does the “binding to full length PLXDC1” value read?
Answer: only bound to full length PLXDC1
